In paper PMC2918618, “Characterization of the TnsD-attTn7 complex that promotes site-specific insertion of Tn7” (Mobile DNA, 2010):
Where a chain is given by its changes, count along the chain named.

Columns and labels:
Assay in all cases: EMSA; Gel-shift buffer not given (as described in ref. 6); TnsD stored in 500 mM KCl, 50 mM Tris-HCl pH 8.0, 1 mM EDTA, 2 mM DTT, 25% glycerol
Settings in all cases: protein: recombinant; tags: intein-chitin tag, cleaved with DTT
TnsD wt = target: T1, TnsD wt (Escherichia coli (transposon Tn7), UniProt P13991 1-508)
T1 sequence: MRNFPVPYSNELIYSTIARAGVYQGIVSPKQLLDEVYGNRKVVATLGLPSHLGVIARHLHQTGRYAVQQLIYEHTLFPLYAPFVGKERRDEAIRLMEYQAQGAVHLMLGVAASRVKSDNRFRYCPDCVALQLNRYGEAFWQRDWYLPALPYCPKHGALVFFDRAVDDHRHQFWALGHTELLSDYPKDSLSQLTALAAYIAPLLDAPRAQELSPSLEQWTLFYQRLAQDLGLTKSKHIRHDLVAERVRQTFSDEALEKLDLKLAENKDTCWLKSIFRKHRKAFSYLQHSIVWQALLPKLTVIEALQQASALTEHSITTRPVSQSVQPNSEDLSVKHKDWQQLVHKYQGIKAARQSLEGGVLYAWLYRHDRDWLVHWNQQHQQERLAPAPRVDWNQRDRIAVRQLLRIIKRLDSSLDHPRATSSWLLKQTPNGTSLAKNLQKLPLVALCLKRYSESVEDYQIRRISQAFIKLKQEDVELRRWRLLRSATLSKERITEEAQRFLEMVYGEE

TnsD A486H = target: T2, TnsD A486H (Escherichia coli (transposon Tn7), UniProt P13991 1-508, A486H)
T2 sequence: T1 sequence with A486H

TnsD M96I = target: T3, TnsD M96I (Escherichia coli (transposon Tn7), UniProt P13991 1-508, M96I)
T3 sequence: T1 sequence with M96I

TnsD C447Y = target: T4, TnsD C447Y (Escherichia coli (transposon Tn7), UniProt P13991 1-508, C447Y)
T4 sequence: T1 sequence with C447Y

B1: attTn7 wt (+23 to +58) (dsDNA)
DNA 1: CCGCGTAACCTGGCAAAATCGGTTACGGTTGAGTAA
DNA 2: TTACTCAACCGTAACCGATTTTGCCAGGTTACGCGG
TnsD wt
  binding signal: 1 relative to wt
TnsD A486H
  binding signal: 0.1 relative to wt
TnsD M96I
  binding signal: 0.3 relative to wt
TnsD C447Y
  binding signal: 0.7 relative to wt
